Data from patent publication US20050176083A1.

Legend:
[1] = target: wild-type human activated protein C (recombinant, thrombin-activated) (human) (UniProt P04070); experiment: cell-based or functional assay
[2] = target: APC mutant QGNSEDY (ALL) (human) (UniProt P04070); experiment: cell-based or functional assay

APTT clotting time in protein S deficient human plasma with APC, highest protein S concentration [1]: 150 s | APTT clotting time in protein S deficient human plasma with APC, in absence of protein S [1]: 100 s | APTT clotting time in protein S deficient human plasma with APC, in absence of protein S [2]: 160 s | APTT clotting time in protein S deficient human plasma with APC, protein S added [2]: 350 s
Substance: human protein S (from UniProt P07225 42-676)
